In patent US20040047873A1 (published 2004):

T1: CD40 on murine splenic B cells (mouse, UniProt P27512 20-289)
T1 sequence (looked up): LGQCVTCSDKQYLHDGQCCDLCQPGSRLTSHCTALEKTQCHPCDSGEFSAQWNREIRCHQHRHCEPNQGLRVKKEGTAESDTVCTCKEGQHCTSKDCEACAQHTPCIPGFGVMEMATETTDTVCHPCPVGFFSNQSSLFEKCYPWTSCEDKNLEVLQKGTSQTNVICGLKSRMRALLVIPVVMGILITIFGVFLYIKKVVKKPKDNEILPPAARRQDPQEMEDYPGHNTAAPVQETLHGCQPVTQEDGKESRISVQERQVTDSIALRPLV

B1: soluble trimeric CD154 (tCD154) (ligand, human;mouse, UniProt P35247 223-257, looked up)
chain: DVASLRQQVEALQGQVQHLQAAFSQYKKVELFPNGLDKVEEEVNLHEDFVFIKKLKRCNKGEGSLSLLNCEEMRRQFEDLVKDITLNKEEKKENSFEMQRGDEDPQIAAHVVSEANSNAASVLQWAKKGYYTMKSNLVMLENGKQLTVKREGLYYVYTQVTFCSNREPSSQRPFIVGLWLKPSSGSERILLKAANTHSSSQLCEQQSVHLGGVFELQAGASVFVNVTEASQVIHRVGFSSFGLLKL
notes: range 223-257;range 50-260; Expressed in CHO-K1 with the rat CD4 leader (secretion signal, left out here); Non-covalent homotrimer, apparent mass ~100 kDa by size exclusion; also called trimeric form of CD154
B2: murine CD40-human Fc fusion protein (Fc fusion, mouse, UniProt P27512 20-193, looked up)
chain: LGQCVTCSDKQYLHDGQCCDLCQPGSRLTSHCTALEKTQCHPCDSGEFSAQWNREIRCHQHRHCEPNQGLRVKKEGTAESDTVCTCKEGQHCTSKDCEACAQHTPCIPGFGVMEMATETTDTVCHPCPVGFFSNQSSLFEKCYPWTSCEDKNLEVLQKGTSQTNVICGLKSRMR
notes: captured on immobilised anti-human Fc mAb in the BIAcore assay; also called CD40-Fc; not shown: human immunoglobulin Fc

Legend:
[1] = molecular target: T1, CD40 on murine splenic B cells; test: cell-based or functional assay
[2] = molecular target: B2; test: BIAcore; dissociation half-time from captured CD40-Fc
Method: (§1) The lower activity of tCD154 when compared with SP-D-CD154 could be the result of its relatively low affinity for CD40. To address this question the inventors analysed the affinity and kinetics of the interaction between tCD154 or SP-D-CD154 and CD40 using the BIAcore™ biosensor, which measures protein-protein interaction in real time. A murine anti-human Fc mAb was covalently coupled to the dextran matrix, and either tCD154 or SPD-CD154 was then injected over this mAb in order to determine the level of non-specific binding. Specific binding was determined by first injecting murine CD40-human Fc fusion protein which bound to the immobilised anti-human Fc mAb, and then injecting (31.3-250 nM) tCD154 or SPD-CD154 (FIG. 6). Co-injection of the anti-CD154 mAb MR1 and tCD154 or SP-D-CD154 completely abolished the binding of tCD154 or SP-D-CD154 to CD40 (data not shown). […] SP-D-CD154 can potentially bind to twelve CD40 molecules, compared to three molecules with tCD154 [9], implying that the extent of receptor oligomerisation may influence the signals generated by CD40. Within the X-shaped SP-D molecule, the adjacent arms are separated by a distance of either ˜20 nm or ˜90 nm (FIG. 1A). Thus if all four arms of SP-D-CD154 engage cell surface-expressed CD40, two clusters are likely to form each with six closely associated CD40 molecules.

[3] = molecular target: B2; test: BIAcore; CD40-Fc captured on anti-human Fc mAb, SP-D-CD154 injected
[4] = molecular target: B2; test: BIAcore; CD40-Fc captured on anti-human Fc mAb, SP-D-CD154 injected at 31.3-250 nM; apparent affinity
[5] = molecular target: B1; test: BIAcore; CD40-Fc captured on anti-human Fc mAb, tCD154 injected
Method: as §1

[6] = molecular target: B1; test: BIAcore; CD40-Fc captured on anti-human Fc mAb, tCD154 injected at 31.3-250 nM; apparent affinity
Method: as §1

Row | fold increase in the level of CD86 on B cells against untreated cells (5 nM, 24 h) [1] [fold] | fold increase in the level of ICAM-1 on B cells against untreated cells (5 nM, 24 h) [1] [fold] | in vitro B cell proliferation assay [1] [µg/mL] | mean forward scatter of B cells (size and activation status) [1] | proliferation of murine splenic B cells ([3H] thymidine incorporation) [1] [fold] | t1/2 [2] [h] | koff [3] [s⁻¹] | Kd [4] [nM] | koff [5] [s⁻¹] | Kd [6] [nM] | Molecule
1 | 3.6 | 3.8 | 2 | 409 | 8 | 1.38 | 0.00014 | 1.3 |  |  | SP-D-CD154 dodecameric fusion protein between lung surfactant protein-D and CD154 (from UniProt P35247 1-257; P27548 50-260) (ligand)
2 | 1.4 | 2 |  |  |  | ~1.07 |  |  |  |  | B1
3 |  |  |  |  |  |  |  |  | 0.00018 | 2 | B2
